Experimental data reported in PMC11339910 (Journal of molecular biology, 2024).

Molecular target: IL-13 (UniProt P35225)
Test: SPR

Chain of IL-13 (P35225 35-143): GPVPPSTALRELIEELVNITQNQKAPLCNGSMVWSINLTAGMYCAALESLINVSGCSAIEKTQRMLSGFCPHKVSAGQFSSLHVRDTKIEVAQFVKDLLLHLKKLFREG

B1: Fab region of tralokinumab (Fab, V domains shown)
VH: QVQLVQSGAEVKKPGASVKVSCKASGYTFTNYGLSWVRQAPGQGLEWMGWISANNGDTNYGQEFQGRVTMTTDTSTSTAYMELRSLRSDDTAVYYCARDSSSSWARWFFDLWGRGTLVTVSS
VL: SYVLTQPPSVSVAPGKTARITCGGNIIGSKLVHWYQQKPGQAPVLVIYDDGDRPSGIPERFSGSNSGNTATLTISRVEAGDEADYYCQVWDTGSDPVVFGGGTKLTVL
binding result: binds
